Here are results for one substance from paper PMC6779431.

As usually defined, the stoichiometry N is the number of molecules, sites or subunits per partner or assembly.

This test concerns the target RTP1S_C2-Strep (TM domain deletion mutant of RTP1S, 1-176 amino acids, with a Strep-tag at the C terminus) (mouse). Nature of the test: SEC-MALS; OH-Pak SB-804HQ column, 100 μl of 0.3 mg/ml, 20 mM phosphate buffer pH 8.0, 100 mM NaCl. In general terms: SEC sorts molecules by how far they enter the pores of the column.

In the case of “RTP1S_C2-Strep (TM domain deletion mutant of RTP1S, 1-176 amino acids, with a Strep-tag at the C terminus) (domain or fragment)”, the stoichiometry N turned out to be 2.
